The target in one assay is T1, p85β cSH2 (603-712) (mouse, UniProt O08908 603-712).
T1 construct: PI3-Kinase regulatory subunit p85β, C-terminal SH2 domain, residues 603-712; also called cSH2 domain of p85β; source: E. coli, purified (glutathione-agarose, HRV 3C cleavage, S75 size exclusion)
T1 sequence (looked up): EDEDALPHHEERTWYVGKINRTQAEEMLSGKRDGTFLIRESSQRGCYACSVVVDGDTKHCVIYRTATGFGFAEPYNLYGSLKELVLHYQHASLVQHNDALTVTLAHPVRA
Nature of the assay: fluorescence polarisation; 5-FAM peptide at 20 nM (CD28, p85α, phospho-p85α) or 40 nM (p85β, phospho-p85β), SH2 domain titrated; 298 K; anisotropy fitted to a single site binding isotherm. To be noted: both partners purified. In general terms: Fluorescence polarisation rises when a labelled molecule tumbles more slowly, as on binding a larger partner.

The next assay deals with T2, p85α cSH2 (614-720) (human, UniProt P27986 614-720).
T2 construct: PI3-Kinase regulatory subunit p85α, C-terminal SH2 domain, residues 614-720; also called cSH2 domain of p85α; source: E. coli, purified (glutathione-agarose, HRV 3C cleavage, S75 size exclusion)
T2 sequence (P27986 614-720): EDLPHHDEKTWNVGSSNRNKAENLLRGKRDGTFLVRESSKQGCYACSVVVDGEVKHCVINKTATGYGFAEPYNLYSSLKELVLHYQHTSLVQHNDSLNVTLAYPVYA
Described as above. To be noted: both partners purified.

Where no end group is shown, it is not given here. [ ]: non-standard residue; d: D form. The star is where a group is joined. 5FAM = O=C1OC2(c3ccc(O)cc3Oc3cc(O)ccc32)c2ccc(C(=O)*)cc21; pY = N[C@@H](Cc1ccc(OP(=O)(O)O)cc1)C(=O)O

B1: CD28 peptide, [5-FAM]-SD-[pY]-MNMTP (peptide)
peptide: 5FAM-SD[pY]MNMTP
notes: known SH2 target phosphopeptide from CD28; also called control peptide from CD28; source: synthetic peptide, bought: Biomatik
Consider B1, for which the binding result with p85β cSH2 (603-712) and in the assay with p85α cSH2 (614-720) was “binds” in each case.

The record behind these values is article doi:10.1101/791277, “Assembly of novel, nuclear dimers of the PI3-Kinase regulatory subunits underpins the pro-proliferative activity of the Cdc42-activated tyrosine kinase, ACK” (bioRxiv, 2019).
